Tests used:
[1] = biological target: T1, CsiR (Pseudomonas putida KT2440) (UniProt Q88IU1); test: EMSA; conditions: 10 mM Tris-HCl pH 7.4, 50 mM KCl, 0.5 mM EDTA, 10% glycerol, 1 mM DTT; 30 C, 30 min; 6% native PAGE at 4 C
T1 sequence: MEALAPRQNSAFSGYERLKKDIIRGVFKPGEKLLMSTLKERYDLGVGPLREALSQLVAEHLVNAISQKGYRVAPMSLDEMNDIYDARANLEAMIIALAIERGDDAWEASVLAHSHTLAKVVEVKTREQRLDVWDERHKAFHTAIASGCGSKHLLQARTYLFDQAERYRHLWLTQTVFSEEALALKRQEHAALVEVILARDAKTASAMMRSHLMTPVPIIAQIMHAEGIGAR

[2] = biological target: His6-tagged GcdR of P. putida KT2440 (Pseudomonas putida KT2440) (UniProt Q88RH3); test: SEC; Superdex 200 10/300 GL gel filtration of purified GcdR against molecular mass standards, compared with SDS-PAGE; buffer A (20 mM sodium phosphate, 500 mM sodium chloride, pH 7.4), 0.5 ml min^-1
[3] = biological target: T2, GcdR (Pseudomonas putida KT2440) (UniProt Q88RH3); test: EMSA; conditions: 10 mM Tris-HCl pH 7.4, 50 mM KCl, 0.5 mM EDTA, 10% glycerol, 1 mM DTT; 30 C, 30 min; 6% native PAGE at 4 C
T2 sequence: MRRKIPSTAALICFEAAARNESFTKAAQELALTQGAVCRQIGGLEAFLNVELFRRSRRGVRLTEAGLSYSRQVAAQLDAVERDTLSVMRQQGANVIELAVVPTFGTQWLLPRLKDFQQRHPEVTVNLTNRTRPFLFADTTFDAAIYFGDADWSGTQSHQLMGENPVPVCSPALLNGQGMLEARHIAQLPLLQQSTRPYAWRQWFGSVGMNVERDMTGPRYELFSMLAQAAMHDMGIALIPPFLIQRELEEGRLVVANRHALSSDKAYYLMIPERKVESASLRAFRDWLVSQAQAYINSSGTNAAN

[4] = biological target: the molecule itself; test: SEC; Superdex 200 10/300 GL gel filtration of purified CsiR against molecular mass standards, compared with SDS-PAGE; buffer C (50 mM sodium phosphate, 150 mM sodium chloride, pH 7.2), 0.5 ml min^-1

Molecule: GATCCTGTTCCTCAAAACGTTTTGCCGATCATACCGAAACCCTCTGCTGACGAAAAACAATGGACAAACACGAGTAGTGTCGTTGAAAAATAAAAATGTAGACATTTTCAGTTAGTGGCGATATTTTTACCTCGCCCGCACTGATCCAGGTCATGACCGGACGGCGCCATCTACTTTTTTAGCCAGGACACTGCC (double strand) [F1 (csiR-csiD intergenic region)]
- binding [1]: binds

Molecule: His6-tagged GcdR of P. putida KT2440 (from UniProt Q88RH3 1-305) (natural protein)
- stoichiometry N [2]: 4

Molecule: GCCGCCTCGAAGCAAATCAGGGCGGCGGTACTGGGGATCTTACGGCGCATGTACGTCAACCTCACTTGTAAGGCTGTCAATAAGGCGTTTTGCCGATTTACGGAGTGACAAAATATCACTAATCGGTGCGCAATCCTCGTTTGTCGCCGCAGCCGATCAGGCCTAGGCTCAAAGGCACAAGAAACTGACCCCTATTTCGAGGATTCGCTCATGGTCGGTAAAGCAAGTTTCAACTGGATCGACCCGTTGCTGCTGGATCA (double strand)
- binding [3]: binds

B1: His6-tagged CsiR protein of P. putida KT2440 (natural protein, Pseudomonas putida KT2440, UniProt Q88IU1 1-231, looked up)
chain: T1 sequence
notes: CsiR, GntR family transcriptional regulator of Pseudomonas putida KT2440, encoded by csiR (pp2908); gene amplified from genomic DNA with primers csiR-F/csiR-R and cloned BamHI/HindIII into pETDuet-1; Cloning into the BamHI/HindIII sites of pETDuet-1 would usually give an N-terminal His tag (surmise); No tag cleavage is described; also called GntR family regulator CsiR; source: E. coli BL21(DE3) …
- stoichiometry N [4]: 2
